Test results from PMC12059646, “Functional Characterization of Luciferase in a Brittle Star Indicates Parallel Evolution Influenced by Genomic Availability of Haloalkane Dehalogenase” (Molecular Biology and Evolution, 2025).
Blank lines part the entries; values can stand above or below the molecule they belong to.

Key:
[1] = test system: T1, AfLuc; assay: luminescence steady-state kinetics, global numerical analysis; type: biochemical, Amphiura filiformis; settings: 25 nM protein
T1 construct: codon-optimised synthetic gene in pET21b, E. coli BL21, Ni-NTA purified

[2] = substrate: Oc1ccc(Cc2nc3c(Cc4ccccc4)nc(-c4ccc(O)cc4)cn3c2O)cc1; assay: as above; type: biochemical, Renilla reniformis; settings: 25 nM protein

Km [1]: 1.21 ± 0.03 µM
Molecule: Oc1ccc(Cc2nc3c(Cc4ccccc4)nc(-c4ccc(O)cc4)cn3c2O)cc1 [coelenterazine]

B1: RLuc (Renilla reniformis) (protein)
chain: MTSKVYDPEQRKRMITGPQWWARCKQMNVLDSFINYYDSEKHAENAVIFLHGNAASSYLWRHVVPHIEPVARCIIPDLIGMGKSGKSGNGSYRLLDHYKYLTAWFELLNLPKKIIFVGHDWGACLAFHYSYEHQDKIKAIVHAESVVDVIESWDEWPDIEEDIALIKSEEGEKMVLENNFFVETMLPSKIMRKLEPEEFAAYLEPFKEKGEVRRPTLSWPREIPLVKGGKPDVVQIVRNYNAYLRASDDLPKMFIESDPGFFSNAIVEGAKKFPNTEFVKVKGLHFSQEDAPDEMGKYIKSFVERVLKNEQ
notes: codon-optimised synthetic gene in pET21b, E. coli BL21, Ni-NTA purified
Km [2]: 0.91 ± 0.05 µM
kcat [2]: 4.2 ± 0.2 s⁻¹
